The values that follow come from patent publication US20110229472A1 (Amgen, published 2011).

To fix the notation:
T1: Recombinant human MPL (human, UniProt P40238 26-491, limits assumed)
T1 construct: also called hu-mpl; hu-MPL
T1 sequence (looked up): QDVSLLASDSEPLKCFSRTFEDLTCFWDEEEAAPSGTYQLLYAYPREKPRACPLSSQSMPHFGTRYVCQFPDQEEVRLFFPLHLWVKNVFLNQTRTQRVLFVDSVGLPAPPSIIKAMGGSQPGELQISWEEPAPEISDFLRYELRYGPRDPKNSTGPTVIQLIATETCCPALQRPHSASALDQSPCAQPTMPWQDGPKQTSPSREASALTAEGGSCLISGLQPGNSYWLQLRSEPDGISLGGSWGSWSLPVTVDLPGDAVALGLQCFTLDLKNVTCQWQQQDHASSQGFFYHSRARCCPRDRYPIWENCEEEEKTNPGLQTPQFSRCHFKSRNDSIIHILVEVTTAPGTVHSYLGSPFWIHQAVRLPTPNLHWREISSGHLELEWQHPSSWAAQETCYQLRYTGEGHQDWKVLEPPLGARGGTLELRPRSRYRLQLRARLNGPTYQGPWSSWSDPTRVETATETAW

B1: TMP3 (22-residue capped peptide) (peptide)
peptide: QGRDLDGPTLRQWLPLPSVQHS
notes: two-residue caps at each end; also called TMP03
B2: TMP2 (22-residue capped peptide) (peptide)
peptide: QGGAREGPTLRQWLEWVRVGHS
notes: two-residue caps at each end; also called TMP02
B3: TMP4 (22-residue capped peptide) (peptide)
peptide: QGALRDGPTLKQWLEYRRQAHS
notes: two-residue caps at each end; also called TMP04

Ends that are not written are not given here.

In this experiment the target is T1, Recombinant human MPL. Nature of the experiment: phage ELISA titration: phagemid particles displaying the peptide, 5-fold dilution series (cfu/ul), on plate-coated recombinant human MPL, HRP-anti-M13 detection, chemiluminescent readout (Example 1, sections 4B and 5).
Turning to B1, the “EC50 (read off the curve)” value is roughly 200000 cfu/ul.
The figure for B2 is roughly 400000 cfu/ul.
For QGCSSGGPTLREWLQCRRMQHS (not fully specified; cysteine pairing not given here, two-residue caps at each end; Two Cys) [TMP22 (22-residue capped peptide)] the value was roughly 200000 cfu/ul; for QGWCKEGPTLREWLRWGFLCHS (not fully specified; cysteine pairing not given here, two-residue caps at each end; Two Cys) [TMP21 (22-residue capped peptide)], roughly 800000 cfu/ul; for B3, roughly 100000 cfu/ul.
For the molecule QGCSWGGPTLKQWLQCVRAKHS (not fully specified; cysteine pairing not given here, two-residue caps at each end; Two Cys) [TMP23 (22-residue capped peptide)], the “EC50 (read off the curve)” value is roughly 100000 cfu/ul.
